In test [1] the target is T1, human macrophage migration-inhibitory factor (MIF) (human, UniProt P14174 2-115, limits assumed, Alexa-Fluor 488 or Monolith NT-647 (MST-Red) label where so named). Description: cell-based or functional assay.
Test [2] concerns the target T1, human macrophage migration-inhibitory …. Nature of the test: fluorescence spectroscopic binding assay.
Test [3] shares this target. Nature of the test: fluorescence spectroscopic titration.
For test [4] the target is unchanged. Nature of the test: fluorescence spectroscopic titration, apparent Kd; Fluos-ngm titrated with MIF. As for the experimental part:
(§1) Peptides were dissolved and analyzed by MALDI-TOF-MS; ^{[a]}Peptides were synthesized with free amino-N-terminal and amidated C-terminal; ^{[b]}monoisotopic molar mass with an additional hydrogen [M + H]⁺; ^{[c]} App. Kds, are means (±SD) from three independent titration experiments which were performed in aqueous […], pH 7.4, containing 1% HFIP.
(§2) Fluorescence spectroscopy. Fluorescence spectroscopic titrations were performed as described^{28, 32}. Fluorescence spectra were recorded using a JASCO FP-6500 fluorescence spectrophotometer. […] Apparent KD values (app. KD) were calculated assuming a 1/1 binding model³².

Test [5] shares this target. Nature of the test: fluorescence spectroscopic titration, apparent Kd; Alexa-488-MIF titrated with ngm. The procedure:
as §1, §2

The target is the same in test [6]. Nature of the test: fluorescence spectroscopic titration of Fluos-ngm-LD3 with increasing MIF [panel B]. As for the experimental part: as §2
For test [7] the target is unchanged. Nature of the test: fluorescence spectroscopic titration; row labelled msR4M-L5 but with the K-K-K linker. The procedure: as §1, §2

Where no end group is shown, it is not given here.

Broadly, the EC50 (read off the curve) is the midpoint of the concentration-response curve. Low values mean higher potency in that assay, high ones lower potency in that assay.

T1 sequence (P14174 2-115 limits assumed): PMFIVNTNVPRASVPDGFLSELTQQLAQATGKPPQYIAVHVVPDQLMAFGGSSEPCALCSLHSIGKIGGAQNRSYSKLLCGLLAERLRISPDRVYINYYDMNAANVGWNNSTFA

Take DRFYPNDLW-NH2 [ECL2(187-195)]: the “inhibitory capacity in the Dil-LDL foam cell assay” value (“inhibitory capacity” below) in test [1] was ~80 % of full-length msR4M-L1. Moreover, the Kd in test [2] is 286 nM.
In the case of WYFGNFLCKDDDDRFYPNDLW-NH2 (designed binder, not fully specified; printed as WYFGNFLCK-DDD-DRFYPNDLW, also called ngm-LD3; msR4M-D3) [msR4M-LD3 ([ECL1(102-110)]-D-D-D-[ECL2(187-195)])], the “IC50 of inhibition of MIF-mediated monocyte migration (3D, single cell tracking)” value in test [1] stood at 18.4 nM. The “IC50 of inhibition of MIF-triggered Dil-oxLDL uptake (foam cell assay)” value in test [1] was 1.4 nM. Besides, the Kd was 33 nM in test [3], 36 nM in test [4] and 246 nM in test [5]. The “EC50 (read off the curve)” value in test [6] is around 30 nM.
Consider WYFGNFLCK-NH2 [ECL1(102-110)], for which the “inhibitory capacity” value in test [1] was ~80 % of full-length msR4M-L1. The molecule also yielded a Kd in test [2] of 80 nM.
Consider ICDRFYPNDLW-NH2 [ECL2 fragment 185-195], for which the “inhibitory capacity” value in test [1] is ~80 % of full-length msR4M-L1. This molecule returned a Kd in test [2] of 324 nM.
In the same order, the values of NWYFGNFLCK-NH2 [ECL1 fragment 101-110] are ~80 % of full-length msR4M-L1 and 51 nM.
For ANWYFGNFLCK-NH2 [ECL1 fragment 100-110], in that order: ~80 % of full-length msR4M-L1 and 215 nM.
In the case of WYFGNFLCKKKKDRFYPNDLW-NH2 (designed binder, not fully specified; printed as WYFGNFLCK-KKK-DRFYPNDLW, also called ngm-LK3; msR4M-K3) [msR4M-LK3 ([ECL1(102-110)]-K-K-K-[ECL2(187-195)])], the results for the Kd in test [4], in test [5] and in test [7] were 36.4 nM, 44.8 nM and 30 to 40 nM, respectively.
Take WYFGNFLCKRRRDRFYPNDLW-NH2 (designed binder, not fully specified; printed as WYFGNFLCK-RRR-DRFYPNDLW, also called ngm-LR3; msR4M-R3) [msR4M-LR3 ([ECL1(102-110)]-R-R-R-[ECL2(187-195)])]: the Kd was 22 nM in test [3], 16.8 nM in test [4] and 110 nM in test [5].

(Values after US20230242616A1 (LUDWIG MAXIMILIANS UNIVERSIT T M NCHEN, published 2023).)
